The supplement of paper PMC12764529
± gives the half width of the 95% confidence interval.

Assays:
[1] = folding stability dG unfold from trypsin proteolysis; higher = more stable
Summary of the method: (§1)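 Designed mini-proteins with no cysteine and under 80 residues were kept only if AlphaFold2 dimer inter-PAE was above 15. In a PA-tagged cDNA display construct, they were digested with trypsin and chymotrypsin and then sequenced. K50 was inferred by Bayesian fitting of counts, and unfolding free energy was derived per protease or combined against a sequence-predicted unfolded-state K50 and a shared folded-state K50.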

[2] = folding stability dG unfold from chymotrypsin proteolysis; higher = more stable
Summary of the method: as §1

[3] = folding stability dG unfold (combined trypsin and chymotrypsin); higher = more stable
Summary of the method: as §1

Row | Sequence | folding stability dG unfold [1] [kcal/mol] | folding stability dG unfold [2] [kcal/mol] | folding stability dG unfold [3] [kcal/mol]
1 | SAKKTITITKITLTLFNKDGKPVATAEITSIEITYDPKTNTFTITATVKVTLPNGKTFTFKLTITLPVKSAG [r14_609_TrROS_Hall] | 3.91 ± 0.18 | 4.87 ± 0.21 | 4.55 ± 0.41
2 | SAKKTITLTITNEDGSTFTITITDNKITITNKDNGLVAEAEILPDGTIKLKIYNKNGELIAEITLKIKDSAG [r14_213_TrROS_Hall] | 3.18 ± 0.32 | 4.32 ± 0.049 | 4.09 ± 0.26
3 | SAKKVEVKKIKVEVTFYDKNGKKVKKKKATITVVKVDGKYYVTIYDENTGKKYVFEFPSLEEAKKALKKSAG [r14_508_TrROS_Hall] | 1.91 ± 0.11 | 3.09 ± 0.044 | 2.77 ± 0.33
4 | SAKKVIIEVKSLEELLKAAKEAAKKGEKVEVLVKLKDGYYVKITMEFDKKTKKIKIKKIEIKPIKKEDLSAG [r14_455_TrROS_Hall] | 2.51 ± 0.12 | 2.75 ± 0.21 | 2.46 ± 0.38
5 | SAKKVPKIEKIEFIPGPNLVKITIPVPEKDKLLVTIDLKDKKLEFELKKNTSFYFSAKYADIKVSVEKKSAG [r14_96_TrMRF] | 2.28 ± 0.16 | 3.11 ± 0.14 | 3 ± 0.2
6 | SAKLAEEIAKKILPEVKEVKILKIEVKKDPKSKFKVIKIEMLVKMPKGEKKIKIEIKPGKPKIKIIPLDSAG [r14_397_TrMRF] | 2.16 ± 0.09 | 2.85 ± 0.1 | 2.67 ± 0.22
7 | SAKLEIELNGYKIVSVEVNEDGTVKMKIEVDGKLYELTLKVKLPPPKVEVKEEKKEVKEVKFVKEGEEKSAG [r14_218_TrROS_Hall] | 1.18 ± 0.096 | 2.15 ± 0.094 | 2.05 ± 0.3
8 | SAKMTAEEIAAALAEELGLEVVEVVEVDEETGKITIRVDGKLIEITVVEEDGELKIEVRVVDEETGEELSAG [r14_270_TrROS_Hall] | 1.84 ± 0.087 | 0.852 ± 0.073 | 1.36 ± 0.18
9 | SAKMVVLKAYFKGDGDEIKEIADAIDFPYTIEKIPDYPDYYIATFVFPTEEKAPEWEKALKEKGYIVEGSAG [r14_745_TrMRF] | 1.88 ± 0.04 | 2.48 ± 0.037 | 2.25 ± 0.049
10 | SAKPPKVEVKTVRVTIKVRNKDGSTYTITKEVTEVRVEVDGKTVTVTSIKITIELPPGITEVEIKIEKVSAG [r14_892_TrROS_Hall] | 3.61 ± 0.49 | 4.84 ± 0.29 | 4.47 ± 0.47
11 | SAKTLTIEELAKKLKEELEKKTGKKLSKEELKKKALELAKKLAEEKGLKIKSVKVEEKDGKLTVTVEVESAG [r14_147_TrROS_Hall] | 3.2 ± 0.16 | 3.26 ± 0.082 | 2.84 ± 0.15
12 | SAKTVKVRIELTLTVVKVTLDPETGELKVEEVKTLTLEIELEMSEEDLEKARRALEEELKRLLEELGIPSAG [r14_308_TrROS_Hall] | 3.64 ± 0.29 | 3.78 ± 0.33 | 3.9 ± 0.37
13 | SAKTVTLKVTLEIEINGVRVKVEATLTLELDENGELKLTLELKIEIEPAPPPKEVKLTEEEKKKLEELKSAG [r14_442_TrROS_Hall] | 2.44 ± 0.23 | 3.79 ± 0.2 | 3.25 ± 0.69
14 | SAKVYRTKDGKEVKVEKKKVKVKTIEIEIEIEMPKELEEKVKKLAEELAKKLAEELNLPPGAKIKITVRSAG [r14_453_TrROS_Hall] | 2.54 ± 0.06 | 2.04 ± 0.051 | 2.34 ± 0.17
15 | SAKYKIIEAKPGKNVVTITVEYTLPNGEKLTKPIPINAINPVIVEVSEDSITIYDPNNGKLITFPAEKLSAG [r14_947_TrMRF] | 2.1 ± 0.12 | 2.87 ± 0.037 | 2.49 ± 0.12
16 | SALDVPPDARVYVFRLRYPVPPGVSAADVAARVRAELSERFGPDVEIVVTVTPDPETGEVLVEAVVVEPVSA [r9_657_TrMRF] | 3.57 ± 0.12 | 4.05 ± 0.058 | 3.82 ± 0.16
17 | SALEELLKELAEKLGYPYTVLEIKKEENTYKMVIKLTKEGTPVIVDVEIEFPSSDPNVYKVKIKKIEEPSAG [r14_387_JUSTAS] | 2.8 ± 0.087 | 3.603 ± 0.027 | 3.49 ± 0.072
18 | SALEIEIEQDEDGNMRISVYLPGWKPIEEQPVPPGDGMKTFIIKLPDRVLMITFTNGGIEPNPVPLNDISAG [r14_403_TrROS] | 2.44 ± 0.17 | 2.69 ± 0.092 | 2.51 ± 0.23
19 | SALKIEISFPGNAGEVRERVLGREDGSYEVEFLVTFPTPGDGIPSVLRVTYRVDPVSGKIEPRLEPVDASAG [r14_590_TrMRF] | 1.48 ± 0.025 | 3.24 ± 0.036 | 2.65 ± 0.052
20 | SALLVAPDGTVVKPETIKTTVETFTTYFLPPGKPVTRKGVKEYTVTVTTTTYTTPNPTLTVETTVTTVGSAG [r14_291_JUSTAS] | -0.0458 ± 0.11 | 0.667 ± 0.2 | 0.392 ± 0.2
21 | SALPLPSSAKVELEWELVGVDPGSKGAKVYYRRTLKVTFPTGSLTVTYLVEYDPETGTFSWSITSVSPESAG [r14_293_TrMRF] | 4.1 ± 0.19 | 5.65 ± 0.095 | 5.38 ± 0.21

Row | Sequence | folding stability dG unfold [1] [kcal/mol] | folding stability dG unfold [2] [kcal/mol] | folding stability dG unfold [3] [kcal/mol]
22 | SALPPGTTVTYTFYDPATGALVTVTVTTLPDGTVRVTLTVYDPSTGETTTVTFTVDGATLDELLDFIRAGSA [r9_618_TrMRF] | 3.77 ± 0.3 | 5.28 ± 0.18 | 5.37 ± 0.32
23 | SALRPDIPFDAVEKVVIPARHPLLGGVVEAGVYRLKDSDAVLVVVTFPDGSKLVFLVRPDDVLDVLDAISAG [r14_240_TrMRF] | 2.38 ± 0.066 | 2.969 ± 0.01 | 2.75 ± 0.045
24 | SAMANITANYYDPETGKVLAKDLPLPNGDEVHVTPNPVTGTVTVEWDGPEEALEVIKAALPPDWKIYPLSAG [r14_252_TrMRF] | 0.712 ± 0.035 | -0.0765 ± 0.16 | 0.362 ± 0.18
25 | SAMDFPPGSTATIKVEVKNPDNTKTETYEIEVPVDPETGKAITLEDLKEALEKLGVNPENVKIVDIKVGSAG [r14_93_TrMRF] | 3.18 ± 0.22 | 2.25 ± 0.2 | 2.72 ± 0.27
26 | SAMEIEIEPLEKEELLKLPGAEIRLFYFPDRVLAEILLPDGTPFFVEFDPSLKPEEVLEKLLKLLEELGSAG [r14_618_TrMRF] | 3.98 ± 0.18 | 4.29 ± 0.1 | 4.23 ± 0.13
27 | SAMEINIVLVAPPESPEALELAKEVAELVAKEIEEEGIPVEVEVEKIEFFRLPDGSIVVLIPIKVKPPESAG [r14_48_TrMRF] | 1.89 ± 0.1 | 3.27 ± 0.074 | 2.63 ± 0.19
28 | SAMEKVYIKVKFEVEGDPNGKEKKTIELIVENPDPNIGKEKLLEIAKEAVEKFAKENGYKVKISEVEIGSAG [r14_190_TrMRF] | 2.76 ± 0.29 | 4.22 ± 0.18 | 4.29 ± 0.39
29 | SAMELEFETDGSVSVEELIEEFKKAFPLVKEIEAEAEPIPYIPKYKVRFKIKLVPVPTPEEIEEFGKKKSAG [r14_645_TrMRF] | 1.02 ± 0.065 | 1.37 ± 0.21 | 1.2 ± 0.17
30 | SAMELRVESELFPDGRRRLVVLDPGDGAPVVTFIDLEPVDGGYRASITQIGPDPAVAERVARELGIPPESAG [r14_545_TrMRF] | -0.191 ± 0.21 | 1.17 ± 0.047 | 0.786 ± 0.082
31 | SAMERVEIVVKVKVRPDMSLEELKERVERELRRLLEERGIELPEGAKITVEIVEETEDYVVVKVTIELPSAG [r14_735_TrROS_Hall] | 4.53 ± 0.24 | 2.91 ± 0.14 | 4.4 ± 0.32
32 | SAMETYEYPVTGDSATFTVPVPPDHIAKVTVHYPSGSTDTVVPPGVTTTFTVPSSNATVTITIYPRSALSAG [r14_882_JUSTAS] | 1.01 ± 0.025 | 1.53 ± 0.11 | 1.34 ± 0.068
33 | SAMEVIELEFPSVEELEAALKEKFNVEVEKLPDGTKRIKVEVDGELVLIEITDDKVRIRIISKEELEKLSAG [r14_402_TrROS_Hall] | 3.05 ± 0.095 | 1.53 ± 0.041 | 2.42 ± 0.13
34 | SAMEYTLEFDNLKGLTADEIEKAFRDEGYPDVKINGIRRNPDDWTITVHYGPGMPPNRVQNAIRKAIQESAG [r14_657_TrROS] | 1.21 ± 0.045 | 1.87 ± 0.091 | 1.62 ± 0.11
35 | SAMIEIPFSPDTPVEERLAMIKEAIEAAKAAGIEPKEITLIVPPDREDILEAVEEAGIPKERVKIKDQPSAG [r14_589_JUSTAS] | 0.789 ± 0.045 | 1.49 ± 0.057 | 1.24 ± 0.07
36 | SAMIKVVLPGAKLEKVEVFPDKTVKAVFVAKDHLVEIYFDPETGKALIRVYDGEKEYEFVLDVHPDDVISAG [r14_218_TrMRF] | 3.47 ± 0.31 | 4.8 ± 0.25 | 4.33 ± 0.4
37 | SAMILLIKIENKNDGKEFIIEITPNKITIYDKKTGKKYEITVDGNTITIKINGKTYKAKIKEVIPEEELSAG [r14_208_TrROS_Hall] | 3.23 ± 0.2 | 3.86 ± 0.096 | 3.54 ± 0.49
38 | SAMIVVPATFDDRTFVLRIERLPDGSYLVDVEDPDVSREAVVEALRELLPEDAKIVLDPETNLVYVSFDSAG [r14_370_TrMRF] | 3.34 ± 0.11 | 3.73 ± 0.052 | 3.55 ± 0.086
39 | SAMKIIKINGKEVLLVKNENGEILIFVKNKKTNKYYLVKIEIKDGKIKIVEVKPIKTYSLEELLKEELLSAG [r14_384_TrROS_Hall] | 3.22 ± 0.16 | 3.45 ± 0.023 | 3.42 ± 0.11
40 | SAMKIKIKVIGVLKPENHALIFLELDDSIPPEIPVVIRIKNENGEILEIPIEGNRALLVVDDRKIEILTSAG [r14_350_TrMRF] | 1.82 ± 0.08 | 1.67 ± 0.072 | 1.73 ± 0.12
41 | SAMKIKVPPGAEIITEDGEKIEPGQEVEVTDIEFDEETGEVHITVKIKNPETGEEIEEKVTIRFPKEEESAG [r14_258_TrROS_Hall] | 1.29 ± 0.11 | 0.977 ± 0.042 | 1.09 ± 0.15
